The values below come from patent publication US20120003226A1.

For this assay, the target named is IL-1 receptor (human) (UniProt P14778). As to the kind of experiment: cell-based or functional assay.
Sequence of UniProt P14778 (P14778 18-569): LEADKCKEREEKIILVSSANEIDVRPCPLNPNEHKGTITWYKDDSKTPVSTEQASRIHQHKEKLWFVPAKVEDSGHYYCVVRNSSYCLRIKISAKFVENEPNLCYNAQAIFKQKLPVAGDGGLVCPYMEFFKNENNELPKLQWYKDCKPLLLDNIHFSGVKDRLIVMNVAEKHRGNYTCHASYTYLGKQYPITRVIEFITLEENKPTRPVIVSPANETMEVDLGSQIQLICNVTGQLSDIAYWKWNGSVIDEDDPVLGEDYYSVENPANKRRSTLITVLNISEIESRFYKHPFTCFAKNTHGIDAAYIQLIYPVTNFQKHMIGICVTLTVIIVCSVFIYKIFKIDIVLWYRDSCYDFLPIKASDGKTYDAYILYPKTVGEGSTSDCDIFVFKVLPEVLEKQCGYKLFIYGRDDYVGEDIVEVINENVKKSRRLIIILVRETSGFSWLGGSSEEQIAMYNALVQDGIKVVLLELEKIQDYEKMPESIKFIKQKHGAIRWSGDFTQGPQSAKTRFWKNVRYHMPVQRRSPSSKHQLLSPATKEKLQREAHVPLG

The substance “Kineret® (anakinra) (from UniProt P18510 26-177) (ligand)” yielded an IC50, inhibition of IL-1β induced production of IL-8 in human whole blood (100 pM rhIL-1β) of 53.4 pM.
